The source of these data is patent US20190209659, “STABLE LIQUID FIBRINOGEN” (LABORATOIRE FRANCAIS DU FRACTIONNEMENT ET DES …, published 2019).

Data set [1] deals with T1, fibrinogen (transgenic, human) (Homo sapiens, UniProt P02671-2;P02675;P02679-2 P02671-2:20-644,P02675:31-491,P02679-2:27-437). Nature of the data set: SPR; dose-dependent 125-1000 nM, pH 6.3; resists 1 M NaCl, eluted at pH 7.4 with 2 M MgCl2. The conditions noted are these: tags: purified from transgenic cow milk, 97% purity; chain copies: 2. As to the method:
Each solution of transgenic fibrinogen was injected at pH 6.3 in such a way that a complex was formed in a dose-dependent manner as shown by the increase in the signals depending on the concentration of fibrinogen. […] The fibrinogen was then released from the complex by an elution buffer at pH 7.40 and containing MgCl₂ 2 M. The solid support was then regenerated by injection of a solution of NaOH 50 mM. X-axis: time in s. Y-axis: SPR response in arbitrary unit.
(§1) The chosen aptamer was synthesised with biotin and a spacer of triethylene glycol at the end 5′ of the oligonucleotide. A solution 1 μM of the aptamer was prepared using the SELEX selection buffer. The aptamer solution was heated to 90° C. for 5 min, incubated in ice for 5 min and balanced at the ambient temperature for 10 min. The preparation was injected into a sensor chip coated with streptavidin SA from Biocore T200 instrument (GE Healthcare) at a debit of […] for 7 min. Then, various concentrations of the target were injected onto the immobilised aptamer at a rate of 30 μl/min for 1 minute. After a dissociation for 1-2 min, a step of washing was carried out via injection of a suitable wash buffer at a rate of 30 μl/min for 1 min. For the elution, a suitable elution buffer was injected at a rate of 30 μl/min for 1-2 min. […] During the experiment, the response signal was recorded in a sensorgram.

Data set [2] concerns the target T2, fibrinogen (plasma) (Homo sapiens, UniProt P02671-2;P02675;P02679-2 P02671-2:20-644,P02675:31-491,P02679-2:27-437). The description is as above. Conditions: tags: human plasma purified, 95% or 99.9% purity; semi-purified and plasma used in chromatography; chain copies: 2. How it is done:
Each solution of human plasma fibrinogen was injected at pH 6.3 in such a way that a complex was formed in a dose-dependent manner as shown by the increase in the signals depending on the concentration of fibrinogen. […] The fibrinogen was then released from the complex by an elution buffer at pH 7.40 and containing MgCl₂ 2 M. The solid support was then regenerated by injection of a solution of NaOH 50 mM. X-axis: time in s. Y-axis: SPR response in arbitrary unit.
as §1

Data set [3] deals with T2, fibrinogen (plasma). Nature of the data set: competition; significant inhibition of fibrinogen binding to immobilised SEQ 66 (SPR). Conditions: tags: human plasma purified, 95% or 99.9% purity; semi-purified and plasma used in chromatography; chain copies: 2. As to the method: (§2) In order to compare the affinity of the designed variants with that of the parental aptamer, a concurrent test was conducted. Firstly, a 1 μM solution of the aptamer of SEQ ID NO 66 was prepared using binding buffer. The aptamer solution was heated to 90° C. for 5 min, incubated in ice for 5 min and balanced at the ambient temperature for 10 min. The preparation was injected into a sensor chip coated with streptavidin SA from Biacore T200 instrument (GE Healthcare) at a rate of 10 μl/min for 7 min. Then, mixtures containing a variant (2 μM) and the human plasma fibrinogen (0.4 μM) were injected on the aptamer immobility at a rate of 30 μl/min for 1 minute. The response obtained for the various fragment/fibrinogen mixtures was compared.

The target in data set [4] is T2, fibrinogen (plasma). Nature of the data set: competition; 2 uM variant with 0.4 uM fibrinogen over immobilised SEQ 66 (SPR); among highest affinity. The conditions noted are these: tags: human plasma purified, 95% or 99.9% purity; semi-purified and plasma used in chromatography; chain copies: 2. How it is done:
as §2

Data set [5] has as its target T1, fibrinogen (transgenic, human). Description: SPR; stated strong affinity for plasma and transgenic fibrinogen, pH 6.3. The conditions noted are these: tags: purified from transgenic cow milk, 97% purity; chain copies: 2.
For data set [6], the target named is T2, fibrinogen (plasma). Description: SPR; 250 nM fibrinogen, pH 6.3; resists 0.5 M NaCl. The conditions noted are these: tags: human plasma purified, 95% or 99.9% purity; semi-purified and plasma used in chromatography; chain copies: 2.
The target of data set [7] is T1, fibrinogen (transgenic, human). Nature of the data set: SPR; stated strong affinity, pH-dependent. The conditions noted are these: tags: purified from transgenic cow milk, 97% purity; chain copies: 2.
Data set [8] concerns the target T2, fibrinogen (plasma). Nature of the data set: SPR; stated strong affinity, pH-dependent. The conditions noted are these: tags: human plasma purified, 95% or 99.9% purity; semi-purified and plasma used in chromatography; chain copies: 2.
The target of data set [9] is T2, fibrinogen (plasma). Description: SPR; dose-dependent 125-1000 nM, pH 6.3, MOPS, NaCl 150 mM, MgCl2 5 mM; resists 0.5 M NaCl, eluted at pH 7.4. Conditions: tags: human plasma purified, 95% or 99.9% purity; semi-purified and plasma used in chromatography; chain copies: 2. How it is done: Each solution of human plasma fibrinogen was injected at pH 6.3 in such a way that a complex was formed in a dose-dependent manner as shown by the increase in the signals depending on the concentration of fibrinogen. […] The fibrinogen was then released from the complex by an elution buffer at pH 7.40. The solid support was then regenerated by injection of a solution of NaOH 50 mM. X-axis: time in s. Y-axis: SPR response in arbitrary unit.
as §1

Data set [10] concerns the target T1, fibrinogen (transgenic, human). Description: SPR; dose-dependent 125-1000 nM, pH 6.3; resists 0.5 M NaCl, eluted at pH 7.4. The conditions noted are these: tags: purified from transgenic cow milk, 97% purity; chain copies: 2. As to the method: Each solution of transgenic fibrinogen was injected at pH 6.3 in such a way that a complex was formed in a dose-dependent manner as shown by the increase in the signals depending on the concentration of fibrinogen. […] The fibrinogen was then released from the complex by an elution buffer at pH 7.40. The solid support was then regenerated by injection of a solution of NaOH 50 mM. X-axis: time in s. Y-axis: SPR response in arbitrary unit.
as §1

T2 sequence (P02671 other isoform, or with tags, fused parts or gaps, chain 1 of 3): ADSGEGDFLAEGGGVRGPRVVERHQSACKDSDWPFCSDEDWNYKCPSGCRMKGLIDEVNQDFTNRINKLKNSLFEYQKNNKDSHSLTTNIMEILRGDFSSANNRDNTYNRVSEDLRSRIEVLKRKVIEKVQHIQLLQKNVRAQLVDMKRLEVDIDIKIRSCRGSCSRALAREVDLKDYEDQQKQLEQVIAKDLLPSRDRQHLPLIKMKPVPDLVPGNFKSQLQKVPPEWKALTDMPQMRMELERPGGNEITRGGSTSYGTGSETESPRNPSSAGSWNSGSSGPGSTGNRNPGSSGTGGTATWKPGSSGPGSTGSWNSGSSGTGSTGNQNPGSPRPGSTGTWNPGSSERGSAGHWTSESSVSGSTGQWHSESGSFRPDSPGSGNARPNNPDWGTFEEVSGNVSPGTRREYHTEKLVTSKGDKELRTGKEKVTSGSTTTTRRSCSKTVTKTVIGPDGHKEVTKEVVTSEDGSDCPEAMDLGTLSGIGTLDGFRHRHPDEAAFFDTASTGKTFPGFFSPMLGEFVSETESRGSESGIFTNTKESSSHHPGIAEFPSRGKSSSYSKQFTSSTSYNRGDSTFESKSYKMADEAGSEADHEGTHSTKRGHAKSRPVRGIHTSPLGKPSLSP
T2 sequence (P02675 31-491, chain 2 of 3): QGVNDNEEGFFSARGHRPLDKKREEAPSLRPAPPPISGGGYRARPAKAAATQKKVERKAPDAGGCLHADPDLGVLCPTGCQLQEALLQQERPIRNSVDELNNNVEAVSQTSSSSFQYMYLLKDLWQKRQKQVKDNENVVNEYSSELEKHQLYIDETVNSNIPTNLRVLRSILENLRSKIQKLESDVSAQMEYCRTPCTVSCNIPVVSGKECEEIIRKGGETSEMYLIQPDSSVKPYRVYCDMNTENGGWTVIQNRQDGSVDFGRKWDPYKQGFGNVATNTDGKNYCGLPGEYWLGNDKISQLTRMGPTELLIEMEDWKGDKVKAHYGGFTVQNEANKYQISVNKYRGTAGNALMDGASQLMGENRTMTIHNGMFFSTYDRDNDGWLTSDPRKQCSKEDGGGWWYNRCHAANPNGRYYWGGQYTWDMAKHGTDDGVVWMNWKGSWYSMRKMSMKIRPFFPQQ
T2 sequence (P02679 other isoform, or with tags, fused parts or gaps, chain 3 of 3): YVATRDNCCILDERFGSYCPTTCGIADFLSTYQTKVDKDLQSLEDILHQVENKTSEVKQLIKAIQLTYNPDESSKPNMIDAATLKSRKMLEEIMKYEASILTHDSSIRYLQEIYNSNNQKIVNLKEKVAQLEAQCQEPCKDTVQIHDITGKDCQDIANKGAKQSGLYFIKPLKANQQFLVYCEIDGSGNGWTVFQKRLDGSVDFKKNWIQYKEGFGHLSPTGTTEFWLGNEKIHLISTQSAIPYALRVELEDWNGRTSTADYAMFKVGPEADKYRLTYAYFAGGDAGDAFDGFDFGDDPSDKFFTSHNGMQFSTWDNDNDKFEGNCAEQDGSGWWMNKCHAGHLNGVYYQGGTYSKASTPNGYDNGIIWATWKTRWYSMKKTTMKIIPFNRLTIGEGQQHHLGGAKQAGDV
T1 sequence (P02671 other isoform, or with tags, fused parts or gaps, chain 1 of 3): as the sequence (P02671 other isoform, or with tags, fused parts or gaps, chain 1 of 3) above
T1 sequence (P02675 31-491, chain 2 of 3): as the sequence (P02675 31-491, chain 2 of 3) above
T1 sequence (P02679 other isoform, or with tags, fused parts or gaps, chain 3 of 3): as the sequence (P02679 other isoform, or with tags, fused parts or gaps, chain 3 of 3) above

B1: SEQ ID NO 67 (A5-2.9 base sequence) (ssDNA)
DNA: CGCGTGTGGTTGGTAGGGCTAGGTGTATACGCAT
modifications: 5' biotin-triethylene glycol (SPR); 5' amino-C6 spacer and 3' inverted dT (affinity support)
For B1, the binding result (in [1]; with fibrinogen (plasma) [2]) was “binds” each time.

B2: SEQ ID NO 90 variant (ssDNA)
DNA: GTCAATGCCAGGTCTCGGACCTGGAATCCGCCACCCGCATAGAACCAGGGTTGAC
In the case of B2, in the data set with fibrinogen (plasma) [3], the binding result is on record as “binds”.

B3: SEQ ID NO 92 variant (ssDNA)
DNA: GTCAATGCCAGGTCTCGGACCTGGAATCCGCCACCCGCTTAGAACCAGGGTTGAC
As to B3, in the data set with fibrinogen (plasma) [3], the binding result is recorded as “binds”.

B4: SEQ ID NO 81 variant (ssDNA)
DNA: GTCAATGCCAGGTCTCCCTGGAATCCGCCACCCGCATTAGAACCAGGGTTGAC
In the case of B4, in the data set with fibrinogen (plasma) [4], the binding result is given as “binds”.

B5: SEQ ID NO 91 variant (ssDNA)
DNA: GTCAATGCCAGTCGGACCTGGAATCCGCCACCCGCATTAGAACCAGGGTTGAC
With B5, the binding result in the data set with fibrinogen (plasma) [3] is “binds”.

B6: SEQ ID NO 85 variant (ssDNA)
DNA: GTCAATGCCAGGTCGACCTGGAATCCGCCACCCGCATTAGAACCAGGGTTGAC
As to B6, in the data set with fibrinogen (plasma) [4], the binding result is reported as “binds”.

B7: SEQ ID NO 60 aptamer (ssDNA)
DNA: GGGTCAATGCCAGGTCTCTGCGTACTTATCTCGATGTGGTTGGTAGGGATAGGTGTATATCGGCTCGCAAGCAGTC
modifications: 5' biotin-triethylene glycol
Regarding B7, the binding result (in data set [5]; with fibrinogen (plasma) [6]) was “binds” each time.

B8: SEQ ID NO 80 variant (deletion 1/2) (ssDNA)
DNA: GTCAATGCCAGGTCTCGGACCTGGAATCCGCCACCCGCATTAGAACCAGGGTTGAC
Take B8: the binding result with fibrinogen (plasma) [4] is reported as “binds”.

B9: SEQ ID NO 89 variant (ssDNA)
DNA: GTCAATGCCAGGTCTCGGACCTGGAATCCGCCACCCGCATTAGAACCAGGGTTGA
For B9, in the data set with fibrinogen (plasma) [3], the binding result is “binds”.

B10: SEQ ID NO 1 aptamer (ssDNA)
DNA: GGGTCAATGCCAGGTCTCGGACCTGGAATCCGCCACCCGCATTAGAACCAGGGTTGACATCGGCTCGCAAGCAGTC
modifications: 5' biotin-triethylene glycol
B10: the binding result (in data set [7]; with fibrinogen (plasma) [8]) was “binds” throughout.

B11: SEQ ID NO 65 aptamer (ssDNA)
DNA: GGGTCAATGCCAGGTCTCGAGCCGGTGTTGTGTTATGTTGGTAGGGAAGGTGTATAATATCGGCTCGCAAGCAGTC
modifications: 5' biotin-triethylene glycol
Consider B11, for which the binding result (in data set [5]; with fibrinogen (plasma) [6]) was “binds” in each case.

B12: SEQ ID NO 83 variant (ssDNA)
DNA: GTCAATGCCAGGTCTCCTGGAATCCGCCACCCGCATTAGAACCAGGGTTGAC
In the case of B12, the binding result with fibrinogen (plasma) [4] is reported as “binds”.

B13: SEQ ID NO 86 variant (ssDNA)
DNA: GTCAATGCCAGGTCGCCTGGAATCCGCCACCCGCATTAGAACCAGGGTTGAC
B13: in the data set with fibrinogen (plasma) [4], the binding result is given as “binds”.

B14: SEQ ID NO 93 variant (ssDNA)
DNA: GTCAATGCCAGCGGACCTGGAATCCGCCACCCGCATTAGAACCAGGGTTGAC
As to B14, the binding result with fibrinogen (plasma) [3] was “binds”.

B15: SEQ ID NO 84 variant (ssDNA)
DNA: GTCAATGCCAGGTCACCTGGAATCCGCCACCCGCATTAGAACCAGGGTTGAC
As to B15, the binding result in the data set with fibrinogen (plasma) [4] is reported as “binds”.

B16: SEQ ID NO 58 aptamer (ssDNA)
DNA: GGGTCAATGCCAGGTCTCAACTTTCGCGTGTGGTTGGTAGGGCTAGGTGTATACGCATATCGGCTCGCAAGCAGTC
modifications: 5' biotin-triethylene glycol
Take B16: the binding result (in [7]; in the data set with fibrinogen (plasma) [8]) was “binds” each time.
For GTCAATGCCAGTCGCTGGAATCCGCCACCCGCATTAGAACCAGGGTTGAC (ssDNA) [SEQ ID NO 82 variant], in the data set with fibrinogen (plasma) [4], the binding result is “binds”.

B17: SEQ ID NO 66 (A5-1.9 base sequence) (ssDNA)
DNA: GGGTCAATGCCAGGTCTCGGACCTGGAATCCGCCACCCGCATTAGAACCAGGGTTGAC
modifications: 5' biotin-triethylene glycol (SPR); 5' amino-C6 spacer and 3' inverted dT (affinity support)
As for B17, the binding result (with fibrinogen (plasma) [9]; in data set [10]) was “binds” throughout.

B18: SEQ ID NO 87 variant (ssDNA)
DNA: GTCAATGCCAGGTCTCACCTGGAATCCGCCACCCGCATTAGAACCAGGGTTGAC
In the case of B18, the binding result with fibrinogen (plasma) [4] is “binds”.

B19: SEQ ID NO 88 variant (ssDNA)
DNA: GTCAATGCCAGGTCGGACCTGGAATCCGCCACCCGCATTAGAACCAGGGTTGAC
Consider B19, for which the binding result with fibrinogen (plasma) [3] is given as “binds”.
